Results from paper PMC3483155, “Inhibition of Pre-mRNA Splicing by a Synthetic Blom7α-Interacting Small RNA”.

What was measured:
Blom7-KH = Blom7-KH (Homo sapiens, UniProt Q7Z7F0 1-317); experiment: EMSA; 1 mM Mg2+; 20 nM RNA, 0-50 nM protein; EMSA: PBS pH 7.5, 1 mM MgCl2, 1 mM DTT, 5% glycerol, 20 min at room temperature, gel at 4°C; SPR: 1x PBS, 1 mM Mg acetate, pH 7.0 (or HEPES + 3 mM Mg acetate); details: protein: recombinant; tags: His6 (C-terminal as named, pET30A); label: 3' biotin; single strand
Blom7α wt = Blom7α wt (Homo sapiens, UniProt Q7Z7F0 1-614); experiment: as above

B1: AK48 (ssRNA)
RNA: UGCCCCAAUCCUACACGACCCAAGGCCCCC
Blom7-KH
  binding result: binds
Blom7α wt
  binding result: binds
